Test results reported in patent publication US20190276551A1.

Target: human CD38 protein immobilised on AR2G biosensor (human) (UniProt P28907)
Assay: Octet BLI, immobilised CD38

Daratumumab scFv
koff: 0.0044 s⁻¹
